Data reported in patent US20180037641A1.
pKd: −log10 of the molar value.

How the values were obtained:
[1] = target: P301S human tau, T34 isoform (1N4R), of P301S tg mice (line PS19) (human) (UniProt P10636); assay: cell-based or functional assay
RD(LM)-HA = RD(LM)-HA (UniProt P10636); assay: cell-based or functional assay
RD(LM)-YFP = RD(LM)-YFP (UniProt P10636); assay: cell-based or functional assay
[2] = target: tau RD aggregates passing between HEK293 cells in the propagation assay (RD(LM) and RD(ΔK) constructs); assay: cell-based or functional assay
[3] = target: recombinant human tau, longest isoform hTau40 (441 aa) (human) (UniProt P10636); assay: SPR (Biacore), tau immobilised on CM-5 chip, antibody injected 0.78-400 nM
[4] = target: recombinant mouse tau, longest isoform mTau40 (432 aa) (mouse) (UniProt P10637); assay: as above
Sequence of recombinant mouse tau, longest isoform mTau40 (432 aa) (mouse) (P10637 other isoform, or with tags, fused parts or gaps limits assumed): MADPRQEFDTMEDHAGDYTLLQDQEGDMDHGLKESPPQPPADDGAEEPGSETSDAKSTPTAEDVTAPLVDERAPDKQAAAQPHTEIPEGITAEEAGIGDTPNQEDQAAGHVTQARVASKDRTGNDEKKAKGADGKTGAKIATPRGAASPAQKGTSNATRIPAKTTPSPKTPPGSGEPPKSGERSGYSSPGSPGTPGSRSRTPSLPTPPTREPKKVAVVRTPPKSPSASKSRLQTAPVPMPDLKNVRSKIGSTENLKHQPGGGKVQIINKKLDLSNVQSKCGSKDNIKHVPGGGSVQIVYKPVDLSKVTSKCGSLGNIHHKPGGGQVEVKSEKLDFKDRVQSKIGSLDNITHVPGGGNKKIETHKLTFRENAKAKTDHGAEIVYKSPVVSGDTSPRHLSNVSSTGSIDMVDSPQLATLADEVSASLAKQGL

[5] = target: recombinant human tau, longest isoform hTau40 (441 aa) (human) (UniProt P10636); assay: SPR (BIAcore 2000), tau immobilised on CM-5 chip, antibody injected 0.11-7.5 µg/ml, 1:1 Langmuir global fit
[6] = target: recombinant mouse tau, longest isoform mTau40 (432 aa) (mouse) (UniProt P10637); assay: as above

Row | antibody concentration that significantly blocked uptake and seeding activity [1] [µg/mL] | RD(ΔK)-YFP in the insoluble pellet fraction (detergent fractionation, Western blot) (RD(LM)-HA) [% decrease] | percentage of RD(LM)-YFP/mCherry dual positive cells (flow cytometry) (RD(LM)-YFP) [%] | tau protein present in the cell medium (pull-down, Western blot) [2] [fold] | pKd [3] | koff [3] [s⁻¹] | kon [3] [M⁻¹ s⁻¹] | pKd [4] | koff [4] [s⁻¹] | kon [4] [M⁻¹ s⁻¹] | pKd [5] | koff [5] [s⁻¹] | kon [5] [M⁻¹ s⁻¹] | pKd [6] | koff [6] [s⁻¹] | kon [6] [M⁻¹ s⁻¹] | Substance
1 | 0.5 | 60 | 1.31 | 10 | 10.00 | 7.51e-06 | 75500 | 10.00 | 9.16e-06 | 86100 | 10.00 | 7.51e-06 | 75500 | 10.00 | 9.16e-06 | 86100 | HJ9.3 (antibody)
2 |  |  |  |  | 8.16 | 0.00107 | 153000 | 11.65 | 5.1e-07 | 228000 | 8.16 | 0.00107 | 153000 | 11.65 | 5.1e-07 | 228000 | HJ9.4 (antibody)
